From patent US20100160220A1

Legend:
[1] = target: PTH1R tagged with HA (human) (UniProt Q03431); assay: PTH ligand incubated with transfected cells for 15 seconds, plasma membrane isolated, bound ligand by Western blot
PTH1R-YFP2 = PTH1R-YFP2 (UniProt Q03431); assay: YFP protein-fragment complementation assay with PTH1R-YFP2 in living cells
PTH1R-YFP2, sequence (Q03431 27-593): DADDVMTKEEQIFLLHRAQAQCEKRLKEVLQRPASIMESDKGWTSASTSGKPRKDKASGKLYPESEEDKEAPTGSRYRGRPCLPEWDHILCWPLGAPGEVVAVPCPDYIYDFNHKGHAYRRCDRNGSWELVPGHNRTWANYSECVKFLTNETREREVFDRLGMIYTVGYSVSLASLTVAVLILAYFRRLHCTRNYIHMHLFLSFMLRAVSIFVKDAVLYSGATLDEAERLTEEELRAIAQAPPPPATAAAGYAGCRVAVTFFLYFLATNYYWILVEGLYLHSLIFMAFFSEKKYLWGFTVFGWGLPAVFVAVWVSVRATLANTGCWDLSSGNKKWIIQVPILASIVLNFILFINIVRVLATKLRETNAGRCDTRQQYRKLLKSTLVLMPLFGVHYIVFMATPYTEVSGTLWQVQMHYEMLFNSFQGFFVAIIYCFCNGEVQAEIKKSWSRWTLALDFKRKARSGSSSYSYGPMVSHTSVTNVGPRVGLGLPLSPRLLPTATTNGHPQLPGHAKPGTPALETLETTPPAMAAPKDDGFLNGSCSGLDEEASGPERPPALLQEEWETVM

PTH1R tagged with HA (human), sequence (Q03431 27-593): as above

With “PTH ligand (form not stated, Example 12) (from UniProt P01270 32-65)” the reduction of binding of PTH ligands versus vector control (cells overexpressing WT TβRII) [1] was 50%.
With “kinase dead TβRII (K277A)-YFP1 (from UniProt P37173 23-567) (receptor)” the YFP fluorescence intensity relative to WT TβRII (fold of WT TβRII-YFP1) (PTH1R-YFP2) was 0.167.
